This series in a line: soluble on expression in E. coli; label from the status in PepcDB or PDB records.
Turning to “MGSDKIHHHHHHMRILEINTEKGWRGGENQTLLALIGFRKLGHEAELLCFENSALHVQAAAAGFTCHPLTSSTKSIGFLMEYGKNYSILHTQTSKQLTYCILTKPFHNSKVILSRRVDFVPKGFFTLLKYNACDGIICVSGAIEKILKQSGIKTRTVVISDCVTEKTLNKTRAQELLQKLTISGKNIIGTTAALVPHKDPVTLVNAVNILRTKRSDFVLLHFGSGPLAATIQQFITDNNLQDYYKLIGFKERVEDYFSIFNYFVMSSQEEGLGSSVLDAFVYKVPVVSTNAGGLNELVTGRGYVTEKKNAQLLAEALHTAMNSPEQNKKNVAAGYTYAVSNLSVEKIHEEHIDFFKTV”, the “soluble on expression in E. coli” value is on record as “not soluble”.

Take “MAHHHHHHMPAKSAKSKTQTLRDERKLGVEKLVELVFIGRPRTLSFSHRSLGSLRHPYSSLICETSAACASTQDKIMYLLEVFLEAKAEKKAWMRVERIFDSMLGDALMEKMKLGLLLSSELLQRFEVLWIRLGGVNGGFIFEDAYKQFHQHLYFTLFGIEQMTLLPATMQFILEDYQYDSHDKSGIDFGSFAHSMLELADNWAGSREVTDYVAFMDKIIECYPASAVKPCKTHAPDELTLSKDAFFRGGVVVPRVEGEQIVYHRITL”: the “soluble on expression in E. coli” value is “not soluble”.

For “DSDWEDIHYAYFSAICQARKNVYIETPYFIPDESLLKAIKSAALSGVDVRIIFPKIADHKIVNIASYSYFEEILRAGGKVYLYNKGFIHSKVVIIDDKIASAGTANMDLRSFMLNFEVNAFIYDEEVIRVMTDDFFEDLSYCEELNLEVFKNR”, the “soluble on expression in E. coli” value is given as “not soluble”.

With “MGSDKIHHHHHHMEWILFDKDGTLIEFDSSWEKIGVRLVDQLLETFPVHDKEAAHRQLGIIDKKIKPDSVMGSGSLGEIIESFNGVTGKETSDWTRDTSQELIDSRVPENNWIDGVQETIQALRNEGYHIGIVTSDTKKGVDQFLEETQTRNLFDLVISTETHAEEKPHPKVLDPLFNAFDVEPGQVAIVGDTANDMKTAINANLGLGIGVLTGVAKKEELYDADVIINSAKDVKQVIEQYGK”, the “soluble on expression in E. coli” value is given as “not soluble”.

In the case of “MKLSKIKLPYFMNELTLTELDMGVAVPKILQAFKPYVDHQGLWIDLEMSYNGSFLMTLETKMNLTKLGKEPLVEALKVGEIGKEGCRPRAFCLADSDEESSSAGSSEEDDAPEPSGGDKQLLPGAEGYVGGHRTSKIMRFVDKITKSKYFQKATETEFIKKKIEEVSNTPLLLTVEVQECRGTLAVNIPPPPTDRVWYGFRKPPHVELKARPKLGEREVTLVHVTDWIEKKLEQEFQKVFVMPNMDDVYITIMHSAMDPRSTSCLLKDPPVEAADQP”, the “soluble on expression in E. coli” value is “not soluble”.

With “NNMHHLAVVGARDSTSYTQQSLEFLLSNDKSKYLTIVSGLAQGADAMAHQIALKYNLPTIAVLAFGHQTHYPKSTLALRNKIEEKGLVISEYPPHTPIAKYRFPERNRIISGLSKGVLITEAKEQSGSHITIDFALEQNRNVYVLPGSMFNPMTKGNLLRIQEGAKVVLNANDIFEDYYI”, the “soluble on expression in E. coli” value is listed as “not soluble”.

With “DKIAIIGSRRMSVYTKNCVFSLASMLKNAHLCVVSGGALGVDITASMAAMPNTIGIFANGLDQIYPRTNEKIIKQIYENALALSEYEDDYLPKNYDFLLRNRLVIALSKAVVVAQADIKSGSMQSAKLALELNKPLYVLPQRLGESTATNLLLKENKAKLICDFKEFVSEFASID”, the “soluble on expression in E. coli” value was “not soluble”.

On to “MSLELKYKIGFPSLYYPKISLADRIDAAAEKFGEKTAIISAEPKFPSEFPESMNFLEICEVTKKLASGISRKGVRKGEHVGVCIPNSIDYVMTIYALWRVAATPVPINPMYKSFELEHILNDSEATTLVVHSMLYENFKPVLEKTGVERVFVVGGEVNSLSEVMDSGSEDFENVKVNPEEDVALIPYTGGTTGMPKGVMLTHFNLAANALQLAVATGLSHMDTIVGCMPMFHSAEFGLVNLMVTVGNEYVVMGMFNQEMLAENIEKYKGTFSWAVPPALNVLVNTLESSNKTYDWSYLKVFATGAWPVAPALVEKLLKLAAEKCNNPRLRHNQIWGMTEACPMVTTNPPLRLDKSTTQGVPMSDIELKVISLEDGRELGVGESGEIVIRGPNIFKGYWKREKENQECWWYDEKGRKFFRTGDVGFIDEEGFLHFQDRVKEVIKYKGYTIAPFELEALLMKHEAVMDVAVIGKPDEEAGEVPKAFIVLKPEYRGKVDEEDIIEWVRERISGYKRVREVEFVEELPRTASGKLLRRLLREKEAEGHHHHHH”, for which the “soluble on expression in E. coli” value is “soluble”.

Turning to “AIAEHKEVVLLLLLFLKSGQGEPLDDYVNTQGPSLFSVTKKQLGAGSREECAAKCEEDKEFTCRAFQYHSKEQQCVIMAENRKSSIIIRMRDAVLFEK”, the “soluble on expression in E. coli” value is on record as “soluble”.

Take “MRAAFRTLGCKVNQVETEALLGFLKALEPEVVPLEAGGADLVVINSCAVTTTAEADTRKEVRRARRYNPHAFIVVTGCYAELAPEVLKELGADAVVPNARKAELPRVILERFGLPSDPITTPPNEFWGAGERGLLNSRVRAFLKVQDGCQAGCAYCIIPRLRGKERHRDHREALAEAEALLRMGIKEIVLTGVRLGSYKGHPRGLAGLVEDLYHLGAKVRLSSIEPEDTGEDLLKVIGRYAPEVRPHLHLSLQTGSDRLLKLMGRRYDKAYYRELVQRAYDLIPGFALTTDVIAGLPTETEEEHRETLAFLEELRPTRVHAFTYTPRPKTRAASMPQVPPEVRKRRTKELIALAQRLAEERIRPRLGERVEVLVERVQGGEALGHTPDYYEARLEGEARPGETVWARVHGVEGYVLLGRVEGVKEGARGPLELPVR”: the “soluble on expression in E. coli” value is recorded as “soluble”.

As for “SETQSFVVSVAGSDRVGIVHDFSWALKNISANVESSRMACLGGDFAMIVLVSLNAKDGKLIQSALESALPGFQISTRRASSVAERHVSPDTREYELYVEGPDSEGIVEAVTAVLAKKGANIVELETETLPAPFAGFTLFRMGSRVAFPFPLYQEVVTALSRVEEEFGVDIDLEEVVEGEDSEEDDDSPNSPVGRH”, the “soluble on expression in E. coli” value is reported as “soluble”.

For the sequence “MGREMMELNENRALAGGRTGSLRNIKRPLAITEAERQAVRDINLAHLDITSIDFDLFYLRENMELPLDAAAAVAYRLIVGTGLPQKLRCRDDTLLNFILQCRKKYRNVPYHNFYHVVDVCQTIYTFLYKGAVCEKLTELDCFVLLVTALVHDLDHMGLNNSFYLKTDSPLGILSSASGNASVLEVHHCNLAVEILSDPDSDVFEGLDAADRTLAYRSMIDCVLATDMAKHNELLNLFLAAMEKPYQIGDVASRQMMMDVIVKAGDVSNVTKPFDISRLWAMAVTEEFYRQGDMEKEKGVEVLPMFDRSKNTELAKGQIGFIDFVAGPFFKKIVSASLTGMQWTVERVESNRLEWQRTLDVKAAGDGNK”, the “soluble on expression in E. coli” value is reported as “soluble”.

Regarding “MGSDKIHHHHHHMNLKDLENPGVWYRPAPFWSWNDKLCEEELLRQIDEMYEKGYGGFFMHSRVGLVTEYLSEEWMRLVRSCAEHARKLGMLAWLYDEDKWPSGFAGGIVPLEKPEHRHKYLTLLKKDQIKPEDEILKKIERDGEEFYVVKRVMKLGDPWFNGTCYVDLLSRETTEAFLRSTHERYKKSCGDLFRVSIPGIFTDEPTYLRVHHPKETTLPWTERFPEEFLRRKGYDIRDHLEELFFNVKDYMKVRYDFFDVATSLFIENFTIPYAKWCEENGIFMTGHYMAEDTLRGQVEWIGAAMPHYEYMQIPGIDKLARHLEQVVTIKQVSSAAEQLGKKWVLCETFGTTGQHVSFLHRKWIADWQAVLGVTYINPHLSLYSMRGERKRDYPPNLFYQQPWWKNERFLSDYFARLNHIVTQGKREVKVLMIHPISSAWCVYSKFDDEIDKLNELFDTITKELVANKIDFHFGDEMILSKHGRVKEAKLRVGEYEYEVVVLPPLLNLKSSTVELLNSLAENGGKVFVLKDFRYGRFFPERVEGKKGRIEFLKKARVFETLEDLIEELKPFFSVDVLDTKTKENAKAVIAQKRVLEDGSYLLFLANTDIDREVHCHLELKEKRKHTYAIDLFNFKLVELKENEFVMFPASSVCIWVTDEEVPAEDEKVVSTGVLLEKEFDFETALNDFEVKMNSFNVLPVDRVEYFEAGGRVFRNEFVSKIWYEFYRLPDGTPFRVEYSFEVRKKPQKLFLVVECAENLDRITVNGREVRYERKSCIFNEEQNFLDVNFGKMEITDLVREGKNTVVLEGRKENNITGPGCHTRVKDPENHRPTEVETIYLVGDFSLVNVDETRYVIDAPKIPDHRDITRDGYPFYVGSFTLKKIFECKKDPGKRYFLKLNGVEAASVEVILNGKFLGVLFWRPFMIDITDALRNGKNELQLVLTNTLFNLIEANHKADVLEETFRRPKSFIDFEHHTDRYILLPFGLENVAVLSSSSR”, the “soluble on expression in E. coli” value is “not soluble”.

As to “MAQEEEDVRDYNLTEEQKAIKAKYPPVNRKYEYLDHTADVQLHAWGDTLEEAFEQCAMAMFGYMTDTGTVEPLQTVEVETQGDDLQSLLFHFLDEWLYKFSADEFFIPRVGRRIFIVQAPSGNRSQSNNIFSNAGL”, the “soluble on expression in E. coli” value is “soluble”.

On to “MFRAAAPGQLRRAASLLRFQSTLVIAEHANDSLAPITLNTITAATRLGGEVSCLVAGTKCDKVAQDLCKVAGIAKVLVAQHDVYKGLLPEELTPLILATQKQFNYTHICAGASAFGKNLLPRVAAKLEVAPISDIIAIKSPDTFVRTIYAGNALCTVKCDEKVKVFSVRGTSFDAAATSGGSASSEKASSTSPVEISEWLDQKLTKSDRPELTGAKVVVSGGRGLKSGENFKLLYDLADQLHAAVGASRAAVDAGFVPNDMQVGQTGKIVAPELYIAVGISGAIQHLAGMKDSKTIVAINKDPEAPIFQVADYGIVADLFKVVPEMTEILKKK”, for which the “soluble on expression in E. coli” value is recorded as “soluble”.

Regarding “MLFGQSVFQSVVERLKQEKEEEGTEPSPPAGHRIAGFSSGFVVDTHIEAPQPANGNLDAYLAFLADPAPPPESQTEPEPEPMPAHLEKTALADVSAELAIQETDTVATLAEKRRAFARLNHPDRVKPQFRHNATLRMTAANLLIDQALRMLRTREHFR”, the “soluble on expression in E. coli” value is “not soluble”.

With “MKQFLVALTILTSSLFSFASALDIIDESFLALKEFLDQPDSGAFLSLLERARGIFIVPKYLKLGWVLGGQYGQGVLLKRDPETNTWYGPLFVKMYGLSFGPQIGFQSVSLIAVIMENVDAFAEGNITLGGSLSVAAGPLGRRLSADYNLDASVYSYSIARGFYAGFSLEGAKIDVDLDLTREYYNVYRIEPEEILRREVSGRAEKIVNLLNEKLTEEAAALEHHHHHH”, the “soluble on expression in E. coli” value is listed as “not soluble”.

Turning to “MTTHLPSTSQNGEEISAEQFNRIFHERNVIVLDCRSNGDSVKRANRFFCSLRLPALLQRRLMGGSMRLSTVPDLKDLNNSPDQCPEVLLIPGDSEQDEQLSAALARNLKSNHYRHFVLGEPVKTLLSQFPTLRDAADENWNTTFQMNSMPGQASGQQASSGPLLNLNQLRLEGEDQGGKQRAEFPVKLTNFLYLGNAETAKNRDVLKKYSISHVINVTSNLPNTFEEDPNMRYLRISADDNASHNLTKFFPEAISFIDDARRNDSACLVHCLAGISRSVTICLAYLMKTEMCTLDSAYEWVQKRNASIAPNFHFMGQLTDYEKMLGLNSNRVGVSRQAVNFDVHFFCIFKLKKKEENSPESRILAETAV”, the “soluble on expression in E. coli” value is listed as “not soluble”.

On to “MGSDKIHHHHHHMNFPIDEKLIREKQNELHIKDLGMASIRDLVALVTNLEKATGTKFCRMEMGVPGLPAPQIGIETEIQKLREGVASIYPNLDGLPELKQEASRFAKLFVNIDIPARACVPTVGSMQGCFVSFLVANRTHKNREYGTLFIDPGFNLNKLQCRILGQKFESFDLFEYRGEKLREKLESYLQTGQFCSIIYSNPNNPTWQCMTDEELRIIGELATKHDVIVIEDLAYFGMDFRKDYSHPGEPLYQPSVANYTDNYILALSSSKAFSYAGQRIGVLMISGKLYEREYPDLEESFGRLRFGEALSSSALYALSSGATHSAQWGMAAMLKACNDGEYNFRDSVIEYGRKARIMKKMFLDNGFNIVYDKDGNEPLADGFYFTVGYKGMDSSKLIEKFVRYGMCAITLKTTGSKRNEAMRICTSLLPESQFPDLEKRLQMLNAEG”, for which the “soluble on expression in E. coli” value is reported as “not soluble”.

Values taken from the DeepSol protein solubility set.
